The domain aggregation screens of Martell et al. (2025)

experiment: soluble fraction after stress (log2 fold change); higher = more stays soluble; pooled small domains, quantitative proteomics; conditions: stress: pH 4
Outline: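 Small protein domains from pooled custom libraries were exposed to pH 4, then quantified with high-throughput quantitative proteomics. The fold change in how much of each domain remains soluble is read as aggregation propensity. It is given as log2, with higher values meaning more stayed soluble.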

Row | Sequence | soluble fraction (log2)
1 | HMIKITLPDGSVKEYKKGITPAEVAQSISEGLARNVISASYNGKTIETVTPLTTDGSLVLYTWDSPEGK | -0.168
2 | HMIKLTVRQQEILDLIARSIDQTGFPPTRAEIAAELGFKSVNAAEEHLQALARKGVIEMVPGISRGIRLVQ | -0.306
3 | HMIKRNPLDEIEGVGPGRKKALLHAFGSAKGVSRASVVDLVKVEGVSQALAERIHDFFHPATR | 0.198
4 | HMIKSIRELAEVITLWKNQGKTILIAEHRLSYLMDLADRVLYMKDGQIENDFSMADFRKIPPDEISRMGLR | -0.532
5 | HMIKVAANESNRSDVLEIVRLFRVRVVDVNPESLTIEATGAEGKIDALLGLLEHYGVIELVRSGAVAVT | -1.1
6 | HMILESREKYLGEVLEVLVEEEKEGEYFGYSQNYLRVKFKLEEKNLINQLINIKIKSIEDDILIGEKEN | -2.36
7 | HMILKNVTSDLANKRLDKVASILFQTYSRTQIKKWILEGRVLVNGEISNPKDHVHENDEIEINPI | ≥ 0.43
8 | HMIMISKSFEINEDNINKRLDIFLTENLDGLSRGIVQKYISLEQITVNKESSHKDYRLKLDDFIEVKIQAH | -1.06
9 | HMIMNDIQAKVLEIAETKDLGSITYYRLSKMLGVDHPYRVKYAIDKLIEKGLLTAKSDGSITKAI | 0.204
10 | HMIMTTKVSGIMFDKFNPSAILNINGMDYLVRSGDIINGYKILSIGQETVTVQYGANVYKASVG | -0.603
11 | HMIMVAGHLQIKKGKYYMVLELKSESGERKTKWISTGLSAKGNKRKAEAMLEEARENYQSTDA | -0.0361
12 | HMINIFKVKKAMEEIFASEWEDSPYTDQKISQILWSRGFSVSTGLVEKYRGQMGVPDANSRLNLN | -1.39
13 | HMINIGANIRAIRKQKNIKQVDLVRLLQLEGVEITRETLVKIESGVQHIKASQLRGIRDALGTTYDELL | -0.863
14 | HMINITALVKQLGGVDISKFNSAFKLLQQGKPLNTISNKVMADTFVALMKNSDEALNTKFRAAFKKI | 0.0515
15 | HMINKIANLSAELRMEGLPVSIRSTQAAVKIYMDLGGDDRNLLKTALMSIYVKDRYDIPKFNKVFEKLFA | 0.0706
16 | HMINKQPKDYEYFLEKWHFTQTEKHQLHNLILKLNIRYPNKDFLKITENLDNGKLVLKKLEERLSKT | -0.7
17 | HMINNINKLPETQFIKLFANIFENSQFIAVALYKKKGDGFSDFKDLINKIMDIFENTTKEKKLKILNA | -0.173
18 | HMINPASEKQLSFANSLIAKKEGGTETLNHYLHNRKVSSLEELDRKDVSEIINALKFAKEVT | 0.0908
19 | HMINRPVYVPLYTNLDVKDAAEIAEKLEENNIAYKLEDQGETILVNPEQKYKVRLMLAQEGLPKG | 0.168
20 | HMINSFDYLQAIFTELMKSQSKMTNQDAAKRLFMQGKVAVSNRDREGLRMVLAQLVTLLPKEELGGLSTVS | ≥ 0.43
21 | HMIPESVQGIEEFLATGALKGIGKKTAAAIVHKFGKDTLRIMEEEPERLAEVSGIGEKKAAAIGEAFALH | -0.236
22 | HMIPNPMTDRELEVLGLLASGKTYKQVARALDLSQSTVRNHLHNVYHKLNVVDRAQAVIVSRENGW | -0.29
23 | HMIPPGTITIEGAITKVPVFLDGKQIGTVPLTKEDVEPGKYRIRVLGVGRVITIDPGEKENVLFSGEDLGL | -0.401
24 | HMIPTDPNGDLIKILYTSDQINELYARAKLNDVEDLFLDWTKNVLGESNFEETGPTKNEYLIPQ | -0.961
25 | HMIPTTELAERLGTTKVANMIMLGALIKASGIISFDDMIKNLGELLGEGKAKLIKLNKEALEVGFN | 0.0451
26 | HMIPYSDLLKLLSNDAMPKFRNKDGWAKIHALETYLASRWSYQEYGFASFTVLLETVHNAEIRNDSVRLM | -0.0131

Row | Sequence | soluble fraction (log2)
27 | HMIQTMVVTDLKNGTIFKENGHPFIVLKYEHIKVSRGSAQVRVKMKNLITGQVLEKSWQSTAHVDDT | 0.186
28 | HMIRMPNLIGLSVRSAEQQLVIAGLKKGIVHQVNDPRLKEVIDMQALGHKITAGSSIPKGTEVDLYIGNGT | 0.282
29 | HMISAVDLMAARRKIEAGITNLQPGQAFTLPNKVGWVKRMTGGSYFIQGNGGYTASVRTISEAIQAAAMLL | -0.0224
30 | HMISDQENDLNLKHLFDTADQNKDGLILESELKMLMTNLEINKETYDTVMKQITPAGMDYKTFSSL | -0.584
31 | HMISFLNFVRKEIDASQLKDSTKQNHLTTIGLLQSFKPSIEFKDLNYNFITSFEKYLYDAGYQM | 0.105
32 | HMISKQQRQALILDIIQKQSITSQEALLTELQRHHVMTTQTTVSRDIRALGIVRIKDVNGELSYQQLQ | -0.0545
33 | HMISKRFQIDEDNSNKRIDIFLTQSLDSISRGIVQQLILENKVEVNGGPVKRNYLIKIGDVIDVKIDL | -0.608
34 | HMISKTFEINEDNINNRLDIFLANQFDNLSRGIVQKLIESHSVSVSGNFVEKDYKLKLGDIIDVEINLS | -0.853
35 | HMISLNEDQKLAILNEWNQRPDDPPFIKELIELVFPDIPEEAKTGRSRYGIAIKKFLAEKSLQAKV | -0.554
36 | HMISLPSYIREEATEVYNRLHDLGLEYTSLDVNDDSIPKGYVVRTVPEAGASVPAGQVVTVYVSLG | -0.231
37 | HMISQLRGKVLGTDRDALVIDVGGVGFRVSATAGARALAGQSGNEARLFTEMVVREDSIDLFGF | -0.245
38 | HMISRKIKELRLSHDLTQKDLADYLNLTPKMVSFYELGQRVPPSDIILKLAEKFHVSTDYLLGNEDRP | -0.126
39 | HMITDNEFLRIVSFLKQRYGIDMSQKKVIMNGRLENYLKSGGWSSFDEYMNDVEKDTSGDLEKTLVNFLTT | -0.853
40 | HMITETIGANIKTLRDKFRMSQQDLASKMNTARPVISNWENGKTEPSSSQLLKLAKIFDTSTDKILGNV | 0.345
41 | HMITKEDVANKKVNLLFFGNFHKMKLPDFEWGITEMMQDRDYLYGSLTKDLYFLGLVLDRKYKI | 0.124
42 | HMITKENYLEKIKEIKVNEFPASMRELYDFFNEATRNGTDWSAYEEGNVKYVVDAYLERLNLLYKSN | -0.892
43 | HMITLYIHNLEEVGKRLDHYLVSNLDDHSRSQIQSWIRSGSILVNDRSVKTGYSLELNDQILINPPK | -0.15
44 | HMITNSTEIEAMIDSLIKENPEQAEQYRNGNTKVVGWFVGQMMKASKGKANPQVVGDLLAQKLVG | -0.821
45 | HMIVAHEINRHLGESDQPVEIPDNRREGAVAELLKTFNNDDAFREMDDGKYEVALDGEKVREAARSLLA | -0.0196
46 | HMIVDARNREINLGSHVRYVDTGTVGEVTDSKVENDASWVKIDKTNLWYLANKLELLNDEDFKT | -0.517
47 | HMIVDINDVRIDKYIADNTDYSRNLILNLIKNGDILVNDSKIKPSYKVKQGDKITINNVKTD | -0.284
48 | HMIVKQPDIRKQELLDIGVRLYFEAGEKGVSIQQVVKQAGVATGLFYYYFSSKDAFLDEALNDYID | -0.0638
49 | HMIVLPGEELEVHIVQEGKEDGQGVAYLDDGTMVVVEGGRPYVDSFAYVAVTRVLQTGAGRIIFAHPTR | -0.108
50 | HMIYNSGTTDSRGEAIVGGYLVTVTDTDTKDPVANAAVTLHKDNSISIRLPNSRLLDYADQTTVTVQLV | -0.00411
51 | HMKAEKEIEKIKFTIYNEFKRKQEENHFLPPWDGTKMLRQFVLGVVANNPKYQHVNTDILYRDLLLLYYQ | -0.166
52 | HMKAFTKKELQDLVLNIFRASPTTNYNYKQLYKLIRGKDPEIKTLIIAVLLGLEKNGSILQMRPGKYKFS | -0.268

Row | Sequence | soluble fraction (log2)
53 | HMKALDTVLSEIPGLGPVRIKQLLKVFGSVDAIRKASLQDLQQIEGIGPKLAQTIYEYFHQP | -0.328
54 | HMKALYNLDYEKPLSGSYYTETTARAAVPTDIRKLGLIITYKTDATTNITEQFVGSSISAWTTSGNWKSLG | 0.105
55 | HMKAPPLTDREKEILRWVAAGLQNKEIAHKLGISLATVRNHIHNILEKLDVHSKLEAVSLAFRQGWVS | -0.133
56 | HMKASEMKKGQTIKIDGVLYVIVDFQHVKLSKGGAVYQTKLRNLAAGGIRDIRIRAEEVLEDA | -0.515
57 | HMKDITPASEDQLKAITDLMLKVNGEWSDAFFTFISKKFNHQISSPEQLTTFEANTIIDMLRKKAEG | 0.22
58 | HMKDLDSLSQEAKSVYAVFSDKPIHIDDIKRKTGLDFSKLFKAVTELELAELISSGEGKMYSL | -0.858
59 | HMKDLTIRQQQFLNYIKDHLSLTGFPPTRSDIANEMGFKSPNAAEDHLRALARKGAIEIVPGTSRGIRLP | 0.0783
60 | HMKDMKISTKNLLQELAKNYPDQTSFRKNVIETTARAMGYTGKDFYPLLTTDNRVKIGTYDLATFLRSI | -0.122
61 | HMKDNPNETFERIAGKITRTLRSGPVRIQQLDLLFSESAGKVVDVLRAMAENGEVLIKDDTIQLNGNN | -0.261
62 | HMKDTFHNLSEEKRERIIRAALGEFAASGYEKATLDGVVQAAGISKGGLYEYISSKEDLFRYLLEYSYD | -1.43
63 | HMKDTNENLMKMLALLIHAAKIDENYSDEEKELIVNFAEMSSKENLNREQILSIIKSAEEYE | -0.673
64 | HMKEADVRKNEILDAAGILFSEKGYDNTSVTDIMNAVGFAKGTLYHHFKSKEDIMDALIKRQTD | -0.61
65 | HMKEAISIYPNPVKDILTIRGMDETSGVSFKLYDVTGNLLLESTHSELDMSGLNRGVYFLDIAGDVRKVVK | -1.07
66 | HMKEEDLPREYTDILGNSVHERLNIMIHDIIEHSQDKPEVAMSPEREEAMHGLRRWMFDHVYH | -0.307
67 | HMKEEVEILGGKATIYTNDYGVWQFRLWLTTDNKYVRKSLRTKVKDYAITEGEKLYIQIRSDIEKGIKYY | -0.077
68 | HMKEEVSVPDIKGMTYEEAEAKLAKYDLEIEKGETVKASEQYEEGQISSQEPEAGSKVKEGSTIVVDVVE | -0.174
69 | HMKEFSFNGGKVIMNYEADRIQIKHDSRPNQEVITLMKRNGFKWSPTNQAWQRQITGNAIYVTKNLLKS | -0.0347
70 | HMKEGGGYGQLRLKEAAIQHAFDLQNALQFIAERGYQAHENTTLKEAANALNLKPIELLELLKSSQ | -0.574
71 | HMKEIDVPNVVGASENAARKLLESYGFQVEVQWENGERVDNAVVKSYSPNGSAKSGSTVTIVLGT | -0.293
72 | HMKEINFTIEESAKGRLDKVIAENVADLTRSQVQSLIKKGQILVNDAPTTNRYQVKPNDQVIIKLPDPV | 0.0442
73 | HMKEKLGEFENVFLSVDELQKLKSKLGAETESYIERLSNYIASSGKKYKSHYATILSWTQKDTK | -0.644
74 | HMKELASKYEISEYMKFLIENLDKSNFFYPIEKRESMINNIFSIYSKADLSKKELNMLWGMLKKLR | -1.06
75 | HMKELTELIEKIKLRRLELGLSYQELSDLTGINKSTLQRYETGFIKKVPINQVQIIAKALNVTPGYLMG | -0.718
76 | HMKEMTAKQIDMFSDKLSKLESFQSHYIADAGVSVTEYKQAIAAKLQDQFYVEAWGKYLADVGFT | -1.13
